Test results from PMC10847417.

Tests used:
[1] = biological target: pyruvate kinase M2 (PKM2), endogenous (human (endogenous in A549 and H1299)) (UniProt P14618); assay: cross-linking; H1299 cell lysates (with Flag-CIP2A or siCIP2A) treated with 0.01% glutaraldehyde at 37 °C for 9 min, SDS-PAGE, western blot with anti-PKM2
[2] = biological target: HA-PKM2 (wild type), expressed in 293T cells (human) (UniProt P14618); assay: SEC; cell lysates (A549, H1299 or transfected 293T; with shCIP2A, pCDH-CIP2A or Flag-CIP2A) on Superdex 200 Increase 10/300 GL, 50 mM sodium phosphate, 0.15 M NaCl, pH 7.2; fractions analysed by western blot; both exogenous and endogenous PKM2 included
[3] = biological target: purified recombinant WT PKM2 expressed in bacteria (human) (UniProt P14618); assay: SEC; purified recombinant WT, S287A and S287D PKM2 expressed in bacteria; size exclusion chromatography with molecular mass standards

Chain of purified recombinant WT PKM2 expressed in bacteria, P14618 1-531 (enzyme; other documents disagree on this pair) (P14618 whole entry): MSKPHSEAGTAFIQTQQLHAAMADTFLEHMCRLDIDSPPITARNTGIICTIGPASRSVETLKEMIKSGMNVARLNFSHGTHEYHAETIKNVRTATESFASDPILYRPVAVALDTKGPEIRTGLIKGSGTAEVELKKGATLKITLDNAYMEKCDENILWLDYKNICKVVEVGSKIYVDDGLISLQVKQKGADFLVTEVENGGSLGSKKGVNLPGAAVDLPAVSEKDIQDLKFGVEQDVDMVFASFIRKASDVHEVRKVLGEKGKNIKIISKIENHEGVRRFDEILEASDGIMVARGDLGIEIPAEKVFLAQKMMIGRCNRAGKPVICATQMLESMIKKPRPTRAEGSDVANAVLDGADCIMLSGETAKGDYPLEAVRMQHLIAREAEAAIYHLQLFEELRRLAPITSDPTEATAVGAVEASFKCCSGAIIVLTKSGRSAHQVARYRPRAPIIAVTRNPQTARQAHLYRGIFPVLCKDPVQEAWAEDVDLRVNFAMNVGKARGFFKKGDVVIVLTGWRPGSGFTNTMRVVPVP
Chain of pyruvate kinase M2 (PKM2), endogenous, P14618 1-531 (enzyme; other documents disagree on this pair) (P14618 whole entry): as above
Chain of HA-PKM2 (wild type), expressed in 293T cells, P14618 1-531 (enzyme; other documents disagree on this pair) (P14618 whole entry): as above

Substance: pyruvate kinase M2 (PKM2), endogenous, P14618 1-531 (enzyme; other documents disagree on this pair)
- stoichiometry N [1]: 2

Substance: HA-PKM2 (wild type), expressed in 293T cells, P14618 1-531 (enzyme; other documents disagree on this pair)
- stoichiometry N [2]: 2

Substance: purified recombinant WT PKM2 expressed in bacteria, P14618 1-531 (enzyme; other documents disagree on this pair)
- stoichiometry N [3]: 2
